Consider 2 substances from article PMC9464147.

What is called stoichiometry N is a count of units in the complex or per binding partner.

Values joined by “and” are separate entries in the source; they are usually repeats but may differ in a detail not shown here. Equal entries are not always repeated.

Experiment [1] addresses Milk CA VI (carbonic anhydrase VI purified from human milk) (human) (UniProt P23280). Description: SDS-PAGE without cross-linker; milk CA VI without DSS treatment (lane 7), boiled in sample buffer with SDS and reducing agent, SDS-PAGE, densitometry of bands.
Experiment [2] has the same target. Description: SEC; analytical SEC, Superdex 200 5/150 GL, 50 µg protein, 50 mM Tris-HCl pH 7.5, 0.1 ml/min, +12 °C; MW from a standard curve, oligomeric state calculated with a monomer MW of 33.57 kDa.
For experiment [3] the target is unchanged. Description: SEC; analytical SEC, Superdex 200 5/150 GL, 50 µg protein, 0.1 M Na-acetate buffer pH 5.0, 0.1 ml/min, +12 °C; MW from a standard curve, oligomeric state calculated with a monomer MW of 33.57 kDa.
For experiment [4] the target is unchanged. Description: cross-linking; DSS in 25- and 50-fold molar excess over protein (Table 3: 50-fold), milk CA VI 0.25-2 mg/ml in 100 mM Na2HPO4, 0.15 M NaCl pH 7.5, RT 30 min, quenched with Tris-HCl; reducing SDS-PAGE, densitometry of bands.
Experiment [5] addresses Salivary CA VI (carbonic anhydrase VI purified from human saliva) (human) (UniProt P23280). Description: SEC; analytical SEC, Superdex 200 5/150 GL, 50 µg protein, 50 mM Tris-HCl pH 7.5, 0.1 ml/min, +12 °C; MW from a standard curve, oligomeric state calculated with a monomer MW of 33.57 kDa.
The target is the same in experiment [6]. Description: SEC; analytical SEC, Superdex 200 5/150 GL, 50 µg protein, 0.1 M Na-acetate buffer pH 5.0, 0.1 ml/min, +12 °C; MW from a standard curve, oligomeric state calculated with a monomer MW of 33.57 kDa.

“Milk CA VI (carbonic anhydrase VI purified from human milk) (from UniProt P23280 18-308) (enzyme)” displayed a % of the lane in the dimer band (no DSS) in experiment [1] of 9.67%. The stoichiometry N in experiment [2] was 15 and 6. Besides, the stoichiometry N in experiment [3] was 7. Also, in experiment [4], the % of the lane in the dimer band (0.25 mg/ml) is 16.1%, the % of the lane in the dimer band (0.5 mg/ml) stood at 9.88%, the % of the lane in the dimer band (0.75 mg/ml) turned out to be 19.4% and the % of the lane in the dimer band (1 mg/ml) came out at 17%. Also, in experiment [4], the % of the lane in the dimer band (1.5 mg/ml) is 16.9%, the % of the lane in the dimer band (2 mg/ml) was 19%, the % of the lane in the hexamer band (0.25 mg/ml) was 22.3% and the % of the lane in the hexamer band (0.5 mg/ml) was 12.8%. For the same substance, in experiment [4], the % of the lane in the hexamer band (0.75 mg/ml) amounted to 20.3%, the % of the lane in the hexamer band (1 mg/ml) is 23.5%, the % of the lane in the hexamer band (1.5 mg/ml) turned out to be 20.4% and the % of the lane in the hexamer band (2 mg/ml) stood at 20.8%. In addition, in experiment [4], the % of the lane in the tetra- or pentamer band (0.25 mg/ml) came to 14.1%, the % of the lane in the tetra- or pentamer band (0.5 mg/ml) worked out at 10.2%, the % of the lane in the tetra- or pentamer band (0.75 mg/ml) is 15.2% and the % of the lane in the tetra- or pentamer band (1 mg/ml) is 13.2%. Besides, in experiment [4], the % of the lane in the tetra- or pentamer band (1.5 mg/ml) was 12.7%, the % of the lane in the tetra- or pentamer band (2 mg/ml) was determined as 12.1% and the stoichiometry N turned out to be 5. The substance also showed a stoichiometry N in experiment [4] (dimer band) of 2. Also, the stoichiometry N in experiment [4] (hexamer band) was 6.

As to “Salivary CA VI (carbonic anhydrase VI purified from human saliva) (from UniProt P23280 18-308) (enzyme)”, the stoichiometry N in experiment [5] was 14; in experiment [6] it was 6.
